PMC4743851

Legend:
[1] = molecular target: Syntaxin-1A (endogenous, INS-1 832/13 cells) (rat (endogenous in INS-1 832/13)) (UniProt P32851); test: co-IP; IP with 2 μg Syn-3 or Syn-1A antibody from 1 mg INS-1 832/13 lysate; cells at basal 0.8 mM glucose or stimulated with 16.7 mM glucose plus 10 nM GLP-1 for 30 min; blots quantified as percent recovery of total lysate input
[2] = molecular target: Syntaxin-3 (endogenous, INS-1 832/13 cells) (rat (endogenous in INS-1 832/13)) (UniProt Q08849); test: as above
Sequence of Syntaxin-3 (endogenous, INS-1 832/13 cells) (rat (endogenous in INS-1 832/13)) (Q08849 whole entry, the tested form may be a part): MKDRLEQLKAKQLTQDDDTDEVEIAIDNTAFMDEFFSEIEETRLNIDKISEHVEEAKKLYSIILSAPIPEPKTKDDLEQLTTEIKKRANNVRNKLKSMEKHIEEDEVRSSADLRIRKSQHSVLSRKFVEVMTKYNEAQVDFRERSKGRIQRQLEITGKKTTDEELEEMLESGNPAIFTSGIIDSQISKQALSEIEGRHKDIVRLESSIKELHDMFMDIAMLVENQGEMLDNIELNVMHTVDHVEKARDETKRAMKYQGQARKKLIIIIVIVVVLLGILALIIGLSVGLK

[3] = molecular target: GST-Syn-3 (cytoplasmic domain a.a. 1–263) (UniProt Q08849); test: pull-down; GST-Syn-1A (1-265) or GST-Syn-3 (1-263) on glutathione agarose beads incubated with lysate of HEK293 cells transfected with Cav1.3 or Cav2.3, 4°C, 2 h; washed with 20 mM HEPES pH 7.4, 150 mM KOAc, 1 mM EDTA, 1 mM MgCl2, 5% glycerol, 0.1% Triton X-100; blots quantified as percent recovery
[4] = molecular target: GST-Syn-1A (cytoplasmic domain a.a. 1–265) (UniProt P32851); test: as above
[5] = molecular target: Syn-1A expressed in HEK293 cells (UniProt P32851); test: co-IP; HEK293 cells co-transfected with Cav1.3 or Cav2.3 and Syn-1A or Syn-3; IP with anti-Syn-1A or anti-Syn-3 antibody; blots quantified as percent recovery of total lysate input
[6] = molecular target: Syn-3 expressed in HEK293 cells (UniProt Q08849); test: as above
Sequence of Syn-3 expressed in HEK293 cells (Q08849 whole entry): as the sequence (Q08849 whole entry, the tested form may be a part) above

Sequence of Cav2.3 alpha1 subunit expressed in HEK293 cells, Q07652 1-2222 (natural protein) (Q07652 whole entry): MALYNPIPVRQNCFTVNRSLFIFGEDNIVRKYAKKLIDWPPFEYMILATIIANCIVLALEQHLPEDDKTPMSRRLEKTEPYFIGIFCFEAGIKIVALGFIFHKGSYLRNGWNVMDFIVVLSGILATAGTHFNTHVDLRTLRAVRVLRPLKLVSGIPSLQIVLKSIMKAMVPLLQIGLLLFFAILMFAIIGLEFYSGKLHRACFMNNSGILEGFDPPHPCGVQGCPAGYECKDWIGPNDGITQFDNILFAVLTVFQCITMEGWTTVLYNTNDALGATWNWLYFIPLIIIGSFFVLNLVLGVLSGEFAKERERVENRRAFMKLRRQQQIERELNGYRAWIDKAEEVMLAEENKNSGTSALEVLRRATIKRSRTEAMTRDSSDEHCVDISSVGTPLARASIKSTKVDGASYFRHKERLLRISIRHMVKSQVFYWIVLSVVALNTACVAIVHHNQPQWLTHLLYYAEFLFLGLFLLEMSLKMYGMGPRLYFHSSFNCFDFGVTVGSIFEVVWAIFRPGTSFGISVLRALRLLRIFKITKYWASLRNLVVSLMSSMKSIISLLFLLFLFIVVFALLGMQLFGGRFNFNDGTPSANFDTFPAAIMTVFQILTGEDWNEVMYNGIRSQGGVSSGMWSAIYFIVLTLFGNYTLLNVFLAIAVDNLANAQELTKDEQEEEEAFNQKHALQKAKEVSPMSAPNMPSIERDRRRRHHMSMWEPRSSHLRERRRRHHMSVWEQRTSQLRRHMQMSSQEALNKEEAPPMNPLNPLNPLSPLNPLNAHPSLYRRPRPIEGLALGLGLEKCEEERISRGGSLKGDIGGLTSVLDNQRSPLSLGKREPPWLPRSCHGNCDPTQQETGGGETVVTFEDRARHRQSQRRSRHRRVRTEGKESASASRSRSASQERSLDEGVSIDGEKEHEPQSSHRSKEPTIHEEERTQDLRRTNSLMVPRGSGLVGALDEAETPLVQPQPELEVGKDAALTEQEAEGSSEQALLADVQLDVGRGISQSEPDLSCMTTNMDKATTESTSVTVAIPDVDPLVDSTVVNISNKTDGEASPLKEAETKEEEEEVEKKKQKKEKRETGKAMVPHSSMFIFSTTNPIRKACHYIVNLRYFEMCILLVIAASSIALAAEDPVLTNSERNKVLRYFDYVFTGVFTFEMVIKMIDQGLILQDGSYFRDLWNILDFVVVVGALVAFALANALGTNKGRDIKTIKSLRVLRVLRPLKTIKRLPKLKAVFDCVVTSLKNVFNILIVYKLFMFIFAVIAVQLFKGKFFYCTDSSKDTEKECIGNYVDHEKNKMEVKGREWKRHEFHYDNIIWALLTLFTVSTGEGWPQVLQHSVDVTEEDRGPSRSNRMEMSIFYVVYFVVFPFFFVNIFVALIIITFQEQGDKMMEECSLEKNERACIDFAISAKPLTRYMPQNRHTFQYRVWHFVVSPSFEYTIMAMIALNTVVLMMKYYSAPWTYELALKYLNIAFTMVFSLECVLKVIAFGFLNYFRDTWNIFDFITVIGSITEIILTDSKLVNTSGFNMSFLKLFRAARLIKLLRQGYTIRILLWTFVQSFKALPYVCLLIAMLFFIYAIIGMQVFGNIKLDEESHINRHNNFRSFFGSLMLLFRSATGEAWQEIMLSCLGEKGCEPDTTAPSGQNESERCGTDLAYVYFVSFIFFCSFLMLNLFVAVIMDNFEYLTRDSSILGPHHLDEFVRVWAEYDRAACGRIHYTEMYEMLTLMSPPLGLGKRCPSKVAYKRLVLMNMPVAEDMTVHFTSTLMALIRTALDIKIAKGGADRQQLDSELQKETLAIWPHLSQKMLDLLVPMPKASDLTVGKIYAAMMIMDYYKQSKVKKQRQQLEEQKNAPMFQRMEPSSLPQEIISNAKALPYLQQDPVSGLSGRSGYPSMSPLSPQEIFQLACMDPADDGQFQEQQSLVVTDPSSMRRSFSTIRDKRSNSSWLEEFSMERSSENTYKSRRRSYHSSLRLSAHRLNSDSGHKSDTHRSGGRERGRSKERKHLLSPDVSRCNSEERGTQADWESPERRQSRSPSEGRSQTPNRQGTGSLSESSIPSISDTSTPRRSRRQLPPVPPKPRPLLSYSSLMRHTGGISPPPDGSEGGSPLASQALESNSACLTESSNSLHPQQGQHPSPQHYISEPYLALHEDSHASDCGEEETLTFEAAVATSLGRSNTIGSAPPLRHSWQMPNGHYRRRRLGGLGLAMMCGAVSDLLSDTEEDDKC
Sequence of Cav1.3 alpha1 subunit expressed in HEK293 cells, P27732 1-2203 (natural protein) (P27732 whole entry): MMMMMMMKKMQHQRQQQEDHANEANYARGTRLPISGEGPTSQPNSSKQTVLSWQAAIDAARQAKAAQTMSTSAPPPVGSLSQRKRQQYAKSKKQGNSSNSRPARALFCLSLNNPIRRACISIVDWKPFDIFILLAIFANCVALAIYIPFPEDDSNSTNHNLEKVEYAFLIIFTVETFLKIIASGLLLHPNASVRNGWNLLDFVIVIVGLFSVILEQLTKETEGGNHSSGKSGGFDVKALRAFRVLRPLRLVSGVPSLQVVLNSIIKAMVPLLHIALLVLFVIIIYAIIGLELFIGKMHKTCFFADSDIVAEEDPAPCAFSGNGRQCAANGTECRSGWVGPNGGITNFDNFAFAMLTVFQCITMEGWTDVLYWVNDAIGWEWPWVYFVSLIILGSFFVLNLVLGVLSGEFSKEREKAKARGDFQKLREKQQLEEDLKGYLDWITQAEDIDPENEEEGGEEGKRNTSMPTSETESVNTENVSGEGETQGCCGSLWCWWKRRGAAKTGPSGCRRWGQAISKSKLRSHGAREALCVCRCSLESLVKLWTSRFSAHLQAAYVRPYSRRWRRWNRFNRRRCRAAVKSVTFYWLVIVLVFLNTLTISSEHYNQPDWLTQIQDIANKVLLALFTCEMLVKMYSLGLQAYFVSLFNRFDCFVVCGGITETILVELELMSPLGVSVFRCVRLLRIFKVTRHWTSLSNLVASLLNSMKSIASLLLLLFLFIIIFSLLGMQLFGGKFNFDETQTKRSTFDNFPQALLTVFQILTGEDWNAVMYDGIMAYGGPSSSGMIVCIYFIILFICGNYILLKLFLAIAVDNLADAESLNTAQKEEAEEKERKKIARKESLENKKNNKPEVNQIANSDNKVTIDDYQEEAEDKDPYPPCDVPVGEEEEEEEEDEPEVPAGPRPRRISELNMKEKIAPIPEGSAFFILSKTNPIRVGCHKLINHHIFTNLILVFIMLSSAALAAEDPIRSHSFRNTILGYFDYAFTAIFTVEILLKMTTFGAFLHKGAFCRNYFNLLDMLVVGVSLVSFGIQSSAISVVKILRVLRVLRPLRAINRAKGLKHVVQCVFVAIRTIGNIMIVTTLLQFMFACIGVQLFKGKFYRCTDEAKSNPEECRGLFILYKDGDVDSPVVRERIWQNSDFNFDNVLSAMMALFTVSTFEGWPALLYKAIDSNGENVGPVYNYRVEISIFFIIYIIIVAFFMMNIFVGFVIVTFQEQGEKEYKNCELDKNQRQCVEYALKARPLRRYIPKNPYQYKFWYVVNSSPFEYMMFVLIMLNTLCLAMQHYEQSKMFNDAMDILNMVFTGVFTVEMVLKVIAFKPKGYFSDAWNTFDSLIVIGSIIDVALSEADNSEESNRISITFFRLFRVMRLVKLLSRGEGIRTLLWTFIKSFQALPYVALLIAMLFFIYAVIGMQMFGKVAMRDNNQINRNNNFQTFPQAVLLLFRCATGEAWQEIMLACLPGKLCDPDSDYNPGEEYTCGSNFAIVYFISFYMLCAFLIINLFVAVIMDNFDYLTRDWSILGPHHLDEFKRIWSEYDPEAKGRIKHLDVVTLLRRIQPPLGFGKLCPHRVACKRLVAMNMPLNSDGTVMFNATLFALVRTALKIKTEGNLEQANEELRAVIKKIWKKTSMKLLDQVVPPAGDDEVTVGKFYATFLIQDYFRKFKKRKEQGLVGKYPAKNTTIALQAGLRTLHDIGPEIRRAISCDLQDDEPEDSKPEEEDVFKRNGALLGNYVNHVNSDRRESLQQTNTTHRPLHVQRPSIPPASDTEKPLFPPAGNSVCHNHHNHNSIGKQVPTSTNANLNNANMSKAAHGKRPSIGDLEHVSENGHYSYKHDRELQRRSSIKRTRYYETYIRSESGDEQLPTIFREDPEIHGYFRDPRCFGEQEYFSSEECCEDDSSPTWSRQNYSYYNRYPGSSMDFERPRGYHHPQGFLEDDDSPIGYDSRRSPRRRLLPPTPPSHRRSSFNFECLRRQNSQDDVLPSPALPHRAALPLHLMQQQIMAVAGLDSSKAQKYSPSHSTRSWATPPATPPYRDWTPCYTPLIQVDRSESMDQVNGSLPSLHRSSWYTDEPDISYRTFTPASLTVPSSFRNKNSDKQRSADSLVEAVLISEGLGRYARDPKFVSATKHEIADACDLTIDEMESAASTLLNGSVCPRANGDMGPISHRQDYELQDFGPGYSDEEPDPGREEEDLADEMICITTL

Substance | percent recovery of total lysate input, basal (0.8 mM glucose) [1] | percent recovery of total lysate input, stimulated (16.7 mM glucose + 10 nM GLP-1) [1] | percent recovery of total lysate input, basal (0.8 mM glucose) [2] | percent recovery of total lysate input, stimulated (16.7 mM glucose + 10 nM GLP-1) [2] | percent recovery of total lysate input [3] | percent recovery of total lysate input [4] | percent recovery of total lysate input [5] | percent recovery of total lysate input [6]
Cav1.3 alpha1 pore-forming subunit (endogenous, INS-1 832/13 cells), P27732 1-2203 (natural protein) | 1.9% | 15% | 1.9 to 2% | 2% |  |  |  | 
Cav1.3 alpha1 subunit expressed in HEK293 cells, P27732 1-2203 (natural protein) |  |  |  |  | 5.3% | 25.7% | 18.1% | 7.8%
Cav2.3 alpha1 pore-forming subunit (endogenous, INS-1 832/13 cells), Q07652 1-2222 (natural protein) |  |  | 1.7% | 8.1% |  |  |  | 
Cav2.3 alpha1 subunit expressed in HEK293 cells, Q07652 1-2222 (natural protein) |  |  |  |  | 20.1% | 8.4% | 2.2% | 6.1%
